Test results from patent publication US20230416709.

Experiments:
Assay in all cases: cell_activity
[1] = test system: B2M_PPR(R)-FokI M50 (Flavobacterium okeanokoites (FokI domain)); settings: Fn reporter HEK293T, paired with B2M_PPR(L)
[2] = test system: GFP_PPR(L)-FokI M50 (Flavobacterium okeanokoites (FokI domain)); settings: Fn reporter HEK293T, paired with GFP_PPR(R)
[3] = test system: B2M_TALEN(L)-FokI M50 (Flavobacterium okeanokoites (FokI domain)); settings: SSA reporter HEK293T, pair; value in figure only
[4] = test system: B2M_TALEN(L)-FokI M47 (Flavobacterium okeanokoites (FokI domain)); settings: SSA reporter HEK293T, pair; value in figure only
[5] = test system: B2M_TALEN(L)-FokI M49 (Flavobacterium okeanokoites (FokI domain)); settings: SSA reporter HEK293T, pair; value in figure only
[6] = test system: B2M_TALEN(L)-FokI M48 (Flavobacterium okeanokoites (FokI domain)); settings: SSA reporter HEK293T, pair; value in figure only
[7] = test system: B2M_TALEN(R)-FokI M48 (Flavobacterium okeanokoites (FokI domain)); settings: SSA reporter HEK293T, pair; value in figure only
[8] = test system: B2M_TALEN(R)-FokI M49 (Flavobacterium okeanokoites (FokI domain)); settings: SSA reporter HEK293T, pair; value in figure only
[9] = test system: B2M_TALEN(R)-FokI M50 (Flavobacterium okeanokoites (FokI domain)); settings: SSA reporter HEK293T, pair; value in figure only
[10] = test system: B2M_TALEN(R)-FokI M47 (Flavobacterium okeanokoites (FokI domain)); settings: SSA reporter HEK293T, pair; value in figure only
[11] = test system: TALEN-A-FokI M50(G473) (MBP fusion) R473G (Flavobacterium okeanokoites (FokI domain)); settings: E. coli B2P; M50 24% in same experiment
[12] = test system: TALEN-A-FokI wild-type (MBP fusion) (Flavobacterium okeanokoites (FokI domain)); settings: E. coli B2P, 0.1 mM IPTG 15 min 37 C
[13] = test system: TALEN-A-FokI M47 (MBP fusion) (Flavobacterium okeanokoites (FokI domain)); settings: E. coli B2P, 0.1 mM IPTG 15 min 37 C
[14] = test system: TALEN-A-FokI M48 (MBP fusion) (Flavobacterium okeanokoites (FokI domain)); settings: E. coli B2P, 0.1 mM IPTG 15 min 37 C
[15] = test system: TALEN-A-FokI M49 (MBP fusion) (Flavobacterium okeanokoites (FokI domain)); settings: E. coli B2P, 0.1 mM IPTG 15 min 37 C
[16] = test system: TALEN-A-FokI M50 (MBP fusion) (Flavobacterium okeanokoites (FokI domain)); settings: E. coli B2P, 0.1 mM IPTG 15 min 37 C; 24% in second experiment (p75)
[17] = test system: B2M_PPR(L)-FokI M50 (Flavobacterium okeanokoites (FokI domain)); settings: Fn reporter HEK293T, paired with B2M_PPR(R)
[18] = test system: GFP_PPR(R)-FokI M50 (Flavobacterium okeanokoites (FokI domain)); settings: Fn reporter HEK293T, paired with GFP_PPR(L)
[19] = test system: GFP_TALEN(L)-FokI M47 (Flavobacterium okeanokoites (FokI domain)); settings: SSA reporter HEK293T, pair; value in figure only
[20] = test system: GFP_TALEN(L)-FokI M48 (Flavobacterium okeanokoites (FokI domain)); settings: SSA reporter HEK293T, pair; value in figure only
[21] = test system: GFP_TALEN(L)-FokI M49 (Flavobacterium okeanokoites (FokI domain)); settings: SSA reporter HEK293T, pair; value in figure only
[22] = test system: GFP_TALEN(L)-FokI M50 (Flavobacterium okeanokoites (FokI domain)); settings: SSA reporter HEK293T, pair; value in figure only
[23] = test system: GFP_TALEN(R)-FokI M49 (Flavobacterium okeanokoites (FokI domain)); settings: SSA reporter HEK293T, pair; value in figure only
[24] = test system: GFP_TALEN(R)-FokI M50 (Flavobacterium okeanokoites (FokI domain)); settings: SSA reporter HEK293T, pair; value in figure only
[25] = test system: GFP_TALEN(R)-FokI M47 (Flavobacterium okeanokoites (FokI domain)); settings: SSA reporter HEK293T, pair; value in figure only
[26] = test system: GFP_TALEN(R)-FokI M48 (Flavobacterium okeanokoites (FokI domain)); settings: SSA reporter HEK293T, pair; value in figure only

With “AGCAATTCAGGAAA (double strand) [B2M_PPR(R) half-site]” the activity (fold vs WT FokI) [1] was 2.2.
“ACGACTTCTTCAAGT (double strand) [GFP_PPR(L) half-site]” was tested, and the activity (fold vs WT FokI) [2] was 1.5.
Work on “CCAAAGATTCAGGT (double strand) [B2M_TALEN(L) half-site]” yielded an activity (fold vs WT FokI) [3] of over 1, an activity (fold vs WT FokI) [4] of over 1 and an activity (fold vs WT FokI) [5] of over 1. The activity (fold vs WT FokI) [6] was over 1.
With “GACTTTCCATTCTC (double strand) [B2M_TALEN(R) half-site]” the activity (fold vs WT FokI) [7] was over 1, the activity (fold vs WT FokI) [8] was over 1 and the activity (fold vs WT FokI) [9] was over 1. For the same sequence, the activity (fold vs WT FokI) [10] was over 1.
Sequence “AGCCGAAATCATCGCAGCCGCTGCCGCGAGCTCCTGCGATGATTTCGGCT (double strand) [TALEN-A target site (inverted repeat)]” has an activity [11] of under 0.05 % survival, an activity [12] of 0.0001 % survival and an activity [13] of 29 % survival. The activity [14] was 37 % survival, the activity [15] was 45 % survival and the activity [16] was 28 % survival.
With “AATGGAAAGTCAAA (double strand) [B2M_PPR(L) half-site]” the activity (fold vs WT FokI) [17] was 2.2.
Sequence “CCTGGACGTAGCCTT (double strand) [GFP_PPR(R) half-site]” has an activity (fold vs WT FokI) [18] of 1.5.
With “CAGCGTGTCCGGCGA (double strand) [GFP_TALEN(L) half-site]” the activity (fold vs WT FokI) [19] was over 1, the activity (fold vs WT FokI) [20] was over 1 and the activity (fold vs WT FokI) [21] was over 1. For the same sequence, the activity (fold vs WT FokI) [22] was over 1.
Work on “TTGCCGTAGGTGGCA (double strand) [GFP_TALEN(R) half-site]” yielded an activity (fold vs WT FokI) [23] of over 1, an activity (fold vs WT FokI) [24] of over 1 and an activity (fold vs WT FokI) [25] of over 1. It also gave an activity (fold vs WT FokI) [26] of over 1.
